In patent US20250011456A1, “ANTIBODIES AGAINST CD14 AND USES THEREOF” (Villanelle Life Science Inc, priority 2023, published 2025):
Changes are numbered by the printed parent chain. Values joined by “and” are separate entries in the source; they are usually repeats but may differ in a detail not shown here. Identical values can stand only once.

Experiments:
[1] = system: CD14 positive recurrent bladder cancer patient-derived xenograft (PDX); experiment: Anti-CD14 IgG1/IgG4 with or without cisplatin, tumor treatment in PDX mice (tumor length, width, volume, tumor weight; Example 6); assay type: in vivo; conditions: for Tumor Length / Tumor Volume / Tumor Width: IgG4 5 mg/kg i.v. (Ex. 2), PDX mice 1-6
Excerpt: After removing the primary tumor tissue from the patient, the tissue was temporarily placed in a complete culture medium containing RPMI1640 (Gibco Roswell Park Memorial Institute 1640 Media)+PS (penicillin and streptomycin)+10% FBS (Fetal bovine serum). The tissue was then transported to a sterile operating room within an SPF-grade (Specific Pathogen Free) animal facility. The tumor tissue was cut to an appropriate size (5 millimeters (mm) in diameter). Severely immunodeficient NSG (NOD scid gamma mouse) mice were anesthetized using an isoflurane respirator. The tumor was transplanted subcutaneously into the right rib area through surgery. When the tumor volume reached 1 cm^3, it was passaged following the same procedure, and after expanding for three generations, the tumor became stable for use in formal experiments. During the experiment, passaging and expansion were performed as needed. When the tumor volume reached 100 mm^3, the mice were divided into groups according to the experimental requirements and treated with drugs.
The IgG4 tested is the original version of Atibuclimab.
Drug administration on the PDX mice was performed intravenously.

[2] = biological target: T1, human CD14 antigen (B294801, histidine tagged) (Homo sapiens, UniProt P08571); experiment: Biacore 8K kinetic and affinity test of antibodies without PTM sites (Example 9); assay type: binding; conditions: for Koff / kon (1:1 binding): Biacore 8K, analyte B294801 0.1953125-25 nM, capture conc. 1 μg/mL
T1 construct: His; purchased Shanghai BaiYing Biotechnology Co., Ltd B294801 (Batch number 20200518A22)
T1 sequence (P08571 20-345): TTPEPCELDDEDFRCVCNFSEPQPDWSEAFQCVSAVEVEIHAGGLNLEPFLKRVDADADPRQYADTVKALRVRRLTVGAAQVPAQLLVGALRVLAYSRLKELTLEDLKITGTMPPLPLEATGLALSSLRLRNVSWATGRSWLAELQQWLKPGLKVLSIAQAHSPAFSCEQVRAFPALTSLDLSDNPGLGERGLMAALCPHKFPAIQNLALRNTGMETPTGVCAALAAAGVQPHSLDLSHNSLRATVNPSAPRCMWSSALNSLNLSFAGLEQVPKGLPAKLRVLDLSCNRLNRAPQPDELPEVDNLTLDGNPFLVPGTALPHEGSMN
Protocol: Experimental reagents and consumables included cell culture fluid, electroporation buffer, CHO cells, 1 mL electroporation cuvette, Protein A chip (Cytiva, 29127556), various sizes of shake flasks, and various sizes of pipettes. Main instruments and equipment included a shaker (Taicang Huamei), centrifuge (Baiyang), ultrapure water system (Millipore), constant temperature incubator (BLUE PARD), electroporator, water bath, Biacore 8K (Cytiva), and ELISA system (Molecular Devices).
The antigen used for the binding affinity measurements is B294801. This antigen is a human CD14 antigen that is histidine tagged. D6DD3D001 is a mouse antibody, and MPDDAD001-MPDDAD005 are humanized antibodies. The antibodies are recombinant, human (hFc Tag). Selected parameters of the experimental samples are shown in Table 9-1, with MW referring to molecular weight in kDa.
The Biacore 8K platform was used to test the kinetic and affinity properties of the antibody, operating according to system instructions and indications.
Results of Affinity Detection. The affinity of the six antibodies was measured at saturation concentration. For the experiments, the analyte solution comprises the B294801 antigen with an analyte concentration of 0.1953125 nM, 0.390625 nM, 0.78125 nM, 1.5625 nM, 3.125 nM, 6.25 nM, 12.5 nM, and 25 nM. Change factor is described above.

B1: IgG4: The IgG4 tested is the original version of Atibuclimab (anti-CD14 antibody) (antibody, V domains shown)
VH: DVQLQQSGPGLVKPSQSLSLTCTVTGYSITSDSAWNWIRQFPGNRLEWMGYISYSGSTSYNPSLKSRISITRDTSKNQFFLQLNSVTTEDTATYYCVRGLRFAYWGQGTLVTVSS
VL: DIVLTQSPASLAVSLGQRATISCRASESVDSYVNSFLHWYQQKPGQPPKLLIYRASNLQSGIPARFSGSGSRTDFTLTINPVEADDVATYYCQQSNEDPYTFGGGTKLEIK
modifications: IgG4 constant regions
Tumor Length ([1]; Day 0, 5 mg/kg): 6.27 mm and 8.76 mm and 6.59 mm and 7.42 mm and 6.33 mm and 6.02 mm | Tumor Volume ([1]; Day 0, 5 mg/kg): 71.87 mm^3 and 99.55 mm^3 and 90.05 mm^3 and 93.23 mm^3 and 102.04 mm^3 and 77.19 mm^3 | Tumor Width ([1]; Day 0, 5 mg/kg): 4.68 mm and 4.66 mm and 5.11 mm and 4.9 mm and 5.55 mm and 4.95 mm | Tumor Length ([1]; Day 4, 5 mg/kg): 6.09 mm and 6.4 mm and 7.29 mm and 6.97 mm and 6.34 mm and 6.38 mm | Tumor Volume ([1]; Day 4, 5 mg/kg): 113.97 mm^3 and 113.45 mm^3 and 97.29 mm^3 and 124.83 mm^3 and 104.42 mm^3 and 77.89 mm^3 | Tumor Width ([1]; Day 4, 5 mg/kg): 5.98 mm and 5.82 mm and 5.05 mm and 5.85 mm and 5.61 mm and 4.83 mm | Tumor Length ([1]; Day 7, 5 mg/kg): 7.28 mm and 7.86 mm and 8.67 mm and 6.99 mm and 8.27 mm | Tumor Volume ([1]; Day 7, 5 mg/kg): 180.86 mm^3 and 117.78 mm^3 and 198.12 mm^3 and 140.77 mm^3 and 173.66 mm^3 and 136.21 mm^3 | Tumor Width ([1]; Day 7, 5 mg/kg): 6.89 mm and 5.56 mm and 6.94 mm and 5.57 mm and 5.61 mm | Tumor Length ([1]; Day 11, 5 mg/kg): 8.11 mm and 8.29 mm and 6.98 mm and 8.22 mm and 7.53 mm and 8.23 mm | Tumor Width ([1]; Day 11, 5 mg/kg): 5.81 mm and 7.35 mm and 5.72 mm and 8.04 mm and 7.15 mm and 7.08 mm | Tumor Length ([1]; Day 14, 5 mg/kg): 8.23 mm and 8.98 mm and 8.47 mm and 7.26 mm and 9.3 mm and 9.49 mm | Tumor Volume ([1]; Day 14, 5 mg/kg): 222.04 mm^3 and 307.58 mm^3 and 251.33 mm^3 and 190.45 mm^3 and 320.90 mm^3 and 371.60 mm^3 | Tumor Width ([1]; Day 14, 5 mg/kg): 7.18 mm and 8.09 mm and 7.53 mm and 7.08 mm and 8.12 mm and 8.65 mm | Tumor Length ([1]; Day 18, 5 mg/kg): 8.68 mm and 10.39 mm and 9.13 mm and 9.05 mm and 9.45 mm and 9.95 mm | Tumor Volume ([1]; Day 18, 5 mg/kg): 324.35 mm^3 and 536.16 mm^3 and 383.59 mm^3 and 344.61 mm^3 and 334.97 mm^3 and 363.06 mm^3 | Tumor Width ([1]; Day 18, 5 mg/kg): 8.45 mm and 9.93 mm and 8.96 mm and 8.53 mm and 8.23 mm and 8.35 mm | Tumor Length ([1]; Day 21, 5 mg/kg): 10.54 mm and 10.95 mm and 9.73 mm and 10.89 mm and 10.09 mm and 10.17 mm | Tumor Volume ([1]; Day 21, 5 mg/kg): 450.77 mm^3 and 632.99 mm^3 and 424.46 mm^3 and 505.72 mm^3 and 463.61 mm^3 and 487.44 mm^3 | Tumor Width ([1]; Day 21, 5 mg/kg): 9.04 mm and 10.51 mm and 9.13 mm and 9.42 mm and 9.37 mm and 9.57 mm | Tumor Length ([1]; Day 25, 5 mg/kg): 12.37 mm and 11.71 mm and 10.99 mm and 12.36 mm and 12.63 mm | Tumor Volume ([1]; Day 25, 5 mg/kg): 724.64 mm^3 and 746.92 mm^3 and 567.12 mm^3 and 525.64 mm^3 and 639.10 mm^3 and 698.50 mm^3 | Tumor Width ([1]; Day 25, 5 mg/kg): 10.58 mm and 11.04 mm and 9.93 mm and 9.56 mm and 9.94 mm and 10.28 mm | Tumor Length ([1]; Day 28, 5 mg/kg): 11.25 mm and 11.92 mm and 12.46 mm and 12.52 mm and 12.24 mm and 12.94 mm | Tumor Volume ([1]; Day 28, 5 mg/kg): 728.02 mm^3 and 719.55 mm^3 and 840.02 mm^3 and 932.53 mm^3 and 835.40 mm^3 and 919.10 mm^3 | Tumor Width ([1]; Day 28, 5 mg/kg): 11.12 mm and 10.74 mm and 11.35 mm and 11.93 mm and 11.42 mm and 11.65 mm | Tumor weight after 28 days ([1]; IgG4 (5 mg/kg), Ex. 2, per mouse 1-6, 5 mg/kg): 0.779 grams and 0.769 grams and 0.739 grams and 0.863 grams and 0.852 grams and 0.649 grams | tumor suppression rate ([1]; single anti-CD14-IgG4 5 mg/kg (Ex. 2), after 28 days): about 25%

B2: MPDDAD003: D6DD3D014-derived antibody with PTM site removed; VL amino acid nos. 34, 35: TS (antibody, V domains shown)
VH: QLQLQESGPGLVKPSETLSLTCTVSGGSISSDSAWNWIRQPPGKGLEWIGYISYSGSTSYNPSLKSRVTISRDTSKNQFSLKLSSVTAADTAVYYCVRGLRFAYWGQGTLVTVSS
VL: DIQLTQSPSSLSASVGDRVTITCRASESVDSYVTSFLHWYQQKPGKAPKLLIYRASNLQSGVPSRFSGSGSRTDFTLTISSLQPEDVATYYCQQSNEDPYTFGQGTKLEIK
Koff [2]: 0.0026 s⁻¹ | kon (1:1 binding) [2]: 1.29e+06 M⁻¹ s⁻¹ | affinity compared with the humanized antibody D6DD3D014 ([2]; Biacore, B294801 antigen): approximately equivalent to the affinity of the humanized antibody D6DD3D014 | affinity compared with the murine antibody D6DD3D001 ([2]; Biacore, B294801 antigen): within three times less than the affinity of the murine antibody D6DD3D001

B3: MPDDAD001: D6DD3D014-derived antibody with PTM site removed; VL amino acid nos. 34, 35: DS (antibody, V domains shown)
VH: B2 VH
VL: B2 VL with T34D
Koff [2]: 0.00633 s⁻¹ | kon (1:1 binding) [2]: 847000 M⁻¹ s⁻¹

B4: MPDDAD005: D6DD3D014-derived antibody with PTM site removed; VL amino acid nos. 34, 35: QS (antibody, V domains shown)
VH: B2 VH
VL: B2 VL with T34Q
Koff [2]: 0.00544 s⁻¹ | kon (1:1 binding) [2]: 1.11e+06 M⁻¹ s⁻¹

B5: MPDDAD002: D6DD3D014-derived antibody with PTM site removed; VL amino acid nos. 34, 35: SS (antibody, V domains shown)
VH: B2 VH
VL: B2 VL with T34S
Koff [2]: 0.00362 s⁻¹ | kon (1:1 binding) [2]: 1.29e+06 M⁻¹ s⁻¹

B6: MPDDAD004: D6DD3D014-derived antibody with PTM site removed; VL amino acid nos. 34, 35: NA (antibody, V domains shown)
VH: B2 VH
VL: B2 VL with T34N, S35A
Koff [2]: 0.0046 s⁻¹ | kon (1:1 binding) [2]: 775000 M⁻¹ s⁻¹
